Among the data in patent US20240368267A1 (KODIAK SCIENCES, published 2024) are Kd, koff and kon values, retold here.

This experiment has as its target T1, human IL-6 (human, UniProt P05231 30-212).
T1 construct: also called interleukin-6
Description: SPR (Biacore T200), antibody from cell supernatant captured on Protein A, IL-6 flowed over, 37 C. On the procedure:
Those four positions were selected based on their tolerance for mutations as observed in bacterial and mammalian screens. […] These cultures were centrifuged and supernatants containing secreted antibodies were harvested and diluted in HBS-EP+ running buffer (1:20 ratio).
Antibodies were captured on a Protein A chip (GE) by injecting 1:20 cell supernatant dilutions at 10 μL/min for 60 seconds. […] The sensor chip was regenerated by a 60 seconds injection of 10 mM Glycine pH 1.7 at the flow rate of […]. […] For this setup, 1 μg/mL of purified antibody was injected over a Protein A chip at 10 μL/min for 25 seconds. […] The sensor chip was regenerated by a 60 seconds injection of 10 mM Glycine pH 1.7 at flow rate of 50 μL/min. Data analysis for supernatant and purified samples were performed using BIAevaluation software (GE). All sensorgrams were double reference subtracted and fit using a 1:1 Langmuir binding model.
For orientation: In SPR one partner is held on a chip, and binding of the other changes the refractive index at the surface.

Positions count from the first letter of the chain named. Names may count otherwise.

T1 sequence (P05231 30-212 limits assumed): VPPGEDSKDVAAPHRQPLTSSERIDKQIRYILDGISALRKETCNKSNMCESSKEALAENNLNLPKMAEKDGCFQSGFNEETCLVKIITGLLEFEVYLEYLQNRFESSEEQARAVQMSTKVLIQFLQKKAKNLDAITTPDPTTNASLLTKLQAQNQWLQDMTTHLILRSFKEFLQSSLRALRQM

B1: anti-IL-6 antibody, heavy chain I51L, G66D / light chain WT (antibody, human IgG1, V domains shown)
VH: EVQLVESGGGLVQPGGSLRLSCAASGFTFSPFAMSWVRQAPGKGLEWVAKLSPGGSWTYYSDTVTDRFTFSLDTSKSTAYLQMNSLRAEDTAVYYCARQLWGYYALDIWGQGTLVTVSS
VL: DIQLTQSPSSLSASVGDRVTITCSASISVSYMYWYQQKPGKAPKLLIYDMSNLASGVPSRFSGSGSGTDFTLTISSLQPEDFATYYCMQWSGYPYTFGQGTKVEIK
notes: Derived as m2; Engineered human IgG1
For orientation: Kd means the equilibrium constant for the complex coming apart. Usually koff stands for the rate constant with which the complex falls apart. A higher koff goes with fast dissociation. The term kon denotes the second-order rate constant of association. Low values mean slow association, high ones fast association. In turn, B1 yielded a Kd of 386 pM, a koff of 0.000733 s⁻¹ and a kon of 1.9e+06 M⁻¹ s⁻¹.

B2: anti-IL-6 antibody, heavy chain T63R, G66D / light chain WT (antibody, human IgG1, V domains shown)
VH: B1 VH with L51I, T63R
VL: B1 VL
notes: as for B1
In turn, B2 had a Kd of 173 pM, a koff of 0.00046 s⁻¹ and a kon of 2.66e+06 M⁻¹ s⁻¹.

B3: anti-IL-6 antibody, heavy chain I51V, G66D / light chain WT (antibody, human IgG1, V domains shown)
VH: B1 VH with L51V
VL: B1 VL
notes: as for B1
Regarding B3, the Kd worked out at 3.69 pM, the koff was 6.68e-06 s⁻¹ and the kon was 1.81e+06 M⁻¹ s⁻¹.

B4: anti-IL-6 antibody, heavy chain T63A, G66D / light chain WT (antibody, human IgG1, V domains shown)
VH: B1 VH with L51I, T63A
VL: B1 VL
notes: as for B1
B4: the affinity, expressed as Kd, was 177 pM; the koff amounted to 0.000496 s⁻¹; the kon came to 2.8e+06 M⁻¹ s⁻¹.

B5: anti-IL-6 antibody, heavy chain S35A, G66D / light chain WT (antibody, human IgG1, V domains shown)
VH: B1 VH with S35A, L51I
VL: B1 VL
notes: as for B1
On to B5, for which binding was put at a Kd of 300 pM, the koff worked out at 0.000494 s⁻¹ and the kon was 1.65e+06 M⁻¹ s⁻¹.

B6: anti-IL-6 antibody, heavy chain I51P, G66D / light chain WT (antibody, human IgG1, V domains shown)
VH: B1 VH with L51P
VL: B1 VL
notes: as for B1
In the case of B6, the Kd came out at 387000 pM, the koff turned out to be 0.00612 s⁻¹ and the kon is 15800 M⁻¹ s⁻¹.

B7: anti-IL-6 antibody, heavy chain T63L, G66D / light chain WT (antibody, human IgG1, V domains shown)
VH: B1 VH with L51I, T63L
VL: B1 VL
notes: as for B1
In the case of B7, the Kd worked out at 210 pM, the koff was 0.000363 s⁻¹ and the kon was 1.73e+06 M⁻¹ s⁻¹.

B8: anti-IL-6 antibody, heavy chain S35E, G66D / light chain WT (antibody, human IgG1, V domains shown)
VH: B1 VH with S35E, L51I
VL: B1 VL
notes: as for B1
Molecule B8 yielded a Kd of 582 pM, a koff of 0.000509 s⁻¹ and a kon of 874000 M⁻¹ s⁻¹.

B9: anti-IL-6 antibody, heavy chain I51T, G66D / light chain WT (antibody, human IgG1, V domains shown)
VH: B1 VH with L51T
VL: B1 VL
notes: as for B1
With B9, the Kd was determined as 232 pM, the koff is 0.000415 s⁻¹ and the kon came out at 1.79e+06 M⁻¹ s⁻¹.

B10: anti-IL-6 antibody, heavy chain T63H, G66D / light chain WT (antibody, human IgG1, V domains shown)
VH: B1 VH with L51I, T63H
VL: B1 VL
notes: as for B1
B10 yielded a Kd of 213 pM, a koff of 0.00042 s⁻¹ and an on-rate (kon) of 1.98e+06 M⁻¹ s⁻¹.

B11: anti-IL-6 antibody, heavy chain S35Y, G66D / light chain WT (antibody, human IgG1, V domains shown)
VH: B1 VH with S35Y, L51I
VL: B1 VL
notes: as for B1
As to B11, the affinity, expressed as Kd, was 503 pM; the koff worked out at 0.000551 s⁻¹; the kon is 1.1e+06 M⁻¹ s⁻¹.

B12: anti-IL-6 antibody, heavy chain I51Y, G66D / light chain WT (antibody, human IgG1, V domains shown)
VH: B1 VH with L51Y
VL: B1 VL
notes: as for B1
Turning to B12, the Kd was found to be 3450 pM, the koff came out at 0.0051 s⁻¹ and the kon was 1.48e+06 M⁻¹ s⁻¹.

B13: anti-IL-6 antibody, heavy chain I51S, G66D / light chain WT (antibody, human IgG1, V domains shown)
VH: B1 VH with L51S
VL: B1 VL
notes: as for B1
As for B13, the Kd was 191 pM, the dissociation rate constant (koff) is 0.000362 s⁻¹ and the on-rate constant (kon) was 1.89e+06 M⁻¹ s⁻¹.

B14: anti-IL-6 antibody, heavy chain T63I, G66D / light chain WT (antibody, human IgG1, V domains shown)
VH: B1 VH with L51I, T63I
VL: B1 VL
notes: as for B1
Regarding B14, the affinity, expressed as Kd, was 211 pM; the koff was 0.000373 s⁻¹; the kon is 1.77e+06 M⁻¹ s⁻¹.

B15: anti-IL-6 antibody, heavy chain T63P, G66D / light chain WT (antibody, human IgG1, V domains shown)
VH: B1 VH with L51I, T63P
VL: B1 VL
notes: as for B1
B15 registered a dissociation constant Kd of 210 pM, a koff of 0.000436 s⁻¹ and a kon of 2.08e+06 M⁻¹ s⁻¹.

B16: anti-IL-6 antibody, heavy chain S35L, G66D / light chain WT (antibody, human IgG1, V domains shown)
VH: B1 VH with S35L, L51I
VL: B1 VL
notes: as for B1
The molecule B16 showed a Kd of 315 pM, a koff of 0.000351 s⁻¹ and a kon of 1.11e+06 M⁻¹ s⁻¹.

B17: anti-IL-6 antibody, heavy chain I51R, G66D / light chain WT (antibody, human IgG1, V domains shown)
VH: B1 VH with L51R
VL: B1 VL
notes: as for B1
B17 came in with a Kd of 169 pM, a koff of 0.000202 s⁻¹ and an on-rate (kon) of 1.2e+06 M⁻¹ s⁻¹.

B18: anti-IL-6 antibody, heavy chain S35Q, G66D / light chain WT (antibody, human IgG1, V domains shown)
VH: B1 VH with S35Q, L51I
VL: B1 VL
notes: as for B1
B18 had a Kd of 302 pM, an off-rate (koff) of 0.000395 s⁻¹ and a kon of 1.31e+06 M⁻¹ s⁻¹.

B19: anti-IL-6 antibody, heavy chain S35T, G66D / light chain WT (antibody, human IgG1, V domains shown)
VH: B1 VH with S35T, L51I
VL: B1 VL
notes: as for B1
Molecule B19 showed a Kd of 297 pM, a koff of 0.000409 s⁻¹ and a kon of 1.38e+06 M⁻¹ s⁻¹.

B20: anti-IL-6 antibody, heavy chain T63F, G66D / light chain WT (antibody, human IgG1, V domains shown)
VH: B1 VH with L51I, T63F
VL: B1 VL
notes: as for B1
In the case of B20, binding was characterised by a dissociation constant (Kd) of 221 pM, the koff was found to be 0.000401 s⁻¹ and the kon amounted to 1.81e+06 M⁻¹ s⁻¹.

B21: anti-IL-6 antibody, heavy chain S35D, G66D / light chain WT (antibody, human IgG1, V domains shown)
VH: B1 VH with S35D, L51I
VL: B1 VL
notes: as for B1
Take B21: the Kd worked out at 321 pM, the koff came out at 0.000641 s⁻¹ and the kon was 2e+06 M⁻¹ s⁻¹.

B22: anti-IL-6 antibody, heavy chain S35G, G66D / light chain WT (antibody, human IgG1, V domains shown)
VH: B1 VH with S35G, L51I
VL: B1 VL
notes: as for B1
As to B22, the dissociation constant Kd turned out to be 284 pM, the off-rate (koff) was found to be 0.00036 s⁻¹ and the kon stood at 1.27e+06 M⁻¹ s⁻¹.

B23: anti-IL-6 antibody, heavy chain S35V, G66D / light chain WT (antibody, human IgG1, V domains shown)
VH: B1 VH with S35V, L51I
VL: B1 VL
notes: as for B1
Turning to B23, the Kd is 414 pM, the koff was 0.000469 s⁻¹ and the kon worked out at 1.13e+06 M⁻¹ s⁻¹.

B24: anti-IL-6 antibody, heavy chain I51Q, G66D / light chain WT (antibody, human IgG1, V domains shown)
VH: B1 VH with L51Q
VL: B1 VL
notes: as for B1
B24 displayed a Kd of 336 pM, a koff of 0.000648 s⁻¹ and a kon of 1.93e+06 M⁻¹ s⁻¹.

B25: anti-IL-6 antibody, heavy chain S35W, G66D / light chain WT (antibody, human IgG1, V domains shown)
VH: B1 VH with S35W, L51I
VL: B1 VL
notes: as for B1
With B25, the affinity, expressed as Kd, was 23500 pM; the koff stood at 0.00217 s⁻¹; the kon came out at 92300 M⁻¹ s⁻¹.

B26: anti-IL-6 antibody, heavy chain S35I, G66D / light chain WT (antibody, human IgG1, V domains shown)
VH: B1 VH with S35I, L51I
VL: B1 VL
notes: as for B1
The molecule B26 registered a Kd of 334 pM, a koff of 0.000376 s⁻¹ and an on-rate (kon) of 1.12e+06 M⁻¹ s⁻¹.

B27: anti-IL-6 antibody, heavy chain S35K, G66D / light chain WT (antibody, human IgG1, V domains shown)
VH: B1 VH with S35K, L51I
VL: B1 VL
notes: as for B1
Regarding B27, the affinity, expressed as Kd, was 557 pM; the koff worked out at 0.000949 s⁻¹; the kon is 1.7e+06 M⁻¹ s⁻¹.

B28: anti-IL-6 antibody, heavy chain T63G, G66D / light chain WT (antibody, human IgG1, V domains shown)
VH: B1 VH with L51I, T63G
VL: B1 VL
notes: as for B1
Regarding B28, the Kd was 213 pM, the koff came to 0.000397 s⁻¹ and the kon amounted to 1.86e+06 M⁻¹ s⁻¹.

B29: anti-IL-6 antibody, heavy chain I51W, G66D / light chain WT (antibody, human IgG1, V domains shown)
VH: B1 VH with L51W
VL: B1 VL
notes: as for B1
As to B29, the equilibrium dissociation constant (Kd) was 4930 pM, the off-rate constant (koff) is 0.00943 s⁻¹ and the kon is 1.91e+06 M⁻¹ s⁻¹.

B30: anti-IL-6 antibody, heavy chain S35F, G66D / light chain WT (antibody, human IgG1, V domains shown)
VH: B1 VH with S35F, L51I
VL: B1 VL
notes: as for B1
Molecule B30 yielded a Kd of 749 pM, a koff of 0.00119 s⁻¹ and a kon of 1.59e+06 M⁻¹ s⁻¹.

B31: anti-IL-6 antibody, heavy chain T63D, G66D / light chain WT (antibody, human IgG1, V domains shown)
VH: B1 VH with L51I, T63D
VL: B1 VL
notes: as for B1
Turning to B31, the Kd is 204 pM, the koff is 0.000392 s⁻¹ and the kon stood at 1.92e+06 M⁻¹ s⁻¹.

B32: anti-IL-6 antibody, heavy chain S35P, G66D / light chain WT (antibody, human IgG1, V domains shown)
VH: B1 VH with S35P, L51I
VL: B1 VL
notes: as for B1
Turning to B32, binding was put at a Kd of 11900 pM, the koff amounted to 0.00123 s⁻¹ and the kon was found to be 103000 M⁻¹ s⁻¹.
